This note sets out measurements from patent publication US20220098306A1 (Xencor, published 2022).

Assay [1] has as its target T1, mouse Fc fusion of B7H3, full extracellular V1C1-V2C2 domain (human, UniProt Q5ZPR3 29-466).
T1 construct: extracellular domain; Fusions of the single V1C1 and V2C2 domains were tested as well; also called B7H3 antigen; printed 'V1C1-V2V2'; not shown: mouse Fc
T1 sequence (looked up): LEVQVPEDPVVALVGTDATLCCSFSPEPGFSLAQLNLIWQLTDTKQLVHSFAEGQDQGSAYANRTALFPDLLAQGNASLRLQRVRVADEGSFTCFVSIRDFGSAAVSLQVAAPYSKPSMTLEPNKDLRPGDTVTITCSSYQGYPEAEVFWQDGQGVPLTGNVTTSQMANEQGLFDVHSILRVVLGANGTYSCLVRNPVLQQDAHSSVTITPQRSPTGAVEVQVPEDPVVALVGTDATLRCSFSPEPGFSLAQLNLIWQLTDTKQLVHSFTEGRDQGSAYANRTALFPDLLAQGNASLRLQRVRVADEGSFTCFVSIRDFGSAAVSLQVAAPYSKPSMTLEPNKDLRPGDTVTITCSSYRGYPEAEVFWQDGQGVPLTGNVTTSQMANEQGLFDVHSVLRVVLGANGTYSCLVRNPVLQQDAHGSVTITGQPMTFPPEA
As to the kind of experiment: Octet (BLI), B7H3 mouse Fc fusions on anti-mouse Fc biosensors, 1:1 Langmuir fit. The source says: (§1) To investigate whether the difference observed for XENP34339 resulted from the difference in B7H3 binding domain or the difference in bispecific antibody format, the component binding domains of XENP34339 and XENP34389 were biophysically characterized using Octet. […] Anti-mouse Fc biosensors were used to capture mouse Fc fusions of B7H3, either the full extracellular V1C1-[…] domain or the individual V1C1 or V2C2 domains, and dipped into multiple concentrations of XENP34717 or XENP34728. Kinetic analyses were performed by global fitting of binding data with a 1:1 Langmuir binding model. […] Next, the binding affinities of the CD28 binding domains for CD28 antigen in the 2+1 CLC format and the 2+1 Fab2-scFv-Fc format was investigated. Anti-HIS capture (HIS1K) biosensors were used to capture CD28-Fc-His protein and dipped into multiple concentrations of XENP34339 or XENP34389. Kinetic analyses were performed by global fitting of binding data with a 1:1 Langmuir binding model as well as steady state model. The resulting dissociation constant (KD) are depicted in FIG. 53.
For orientation: BLI is a label-free optical method that tracks binding on a fibre tip over time.

In the next assay the target is T2, CD28-Fc-His protein (human, UniProt P10747 19-152).
T2 construct: Captured on anti-HIS (HIS1K) biosensors; also called CD28 antigen; not shown: Fc; His tag
Put plainly: Octet (BLI), CD28-Fc-His on HIS1K biosensors, 1:1 Langmuir and steady state fits.
Description: as §1

B1: XENP34717 (bispecific antibody)
heavy 1: EVQLLESGGGLVQPGGSLRLSCAASGFTFSSYYMSWVRQAPGKGLEWVSTISESGDSTYYADSVKGRFTISRDNSKNTLYLQMNSLRAEDTAVYYCAKSGPGLRQVGFDYWGQGTLVTVSSASTKGPSVFPLAPSSKSTSGGTAALGCLVKDYFPEPVTVSWNSGALTSGVHTFPAVLQSSGLYSLSSVVTVPSSSLGTQTYICNVNHKPSDTKVDKKVEPKSCDKTHTCPPCPAPPVAGPSVFLFPPKPKDTLMISRTPEVTCVVVDVKHEDPEVKFNWYVDGVEVHNAKTKPREEEYNSTYRVVSVLTVLHQDWLNGKEYKCKVSNKALPAPIEKTISKAKGQPREPQVYTLPPSREEMTKNQVSLTCDVSGFYPSDIAVEWESDGQPENNYKTTPPVLDSDGSFFLYSKLTVDKSRWEQGDVFSCSVMHEALHNHYTQKSLSLSPGK
heavy 2: QVQLVQSGAEVKKPGASVKVSCKASGYIFTNNYMHWVRQAPGQGLEWMGIISPSVGRTAYAQKFQGRVTMTRDTSTSTVYMELSSLRSEDTAVYYCARGGGSSPRLDYWGQGTLVTVSSASTKGPSVFPLAPSSKSTSGGTAALGCLVKDYFPEPVTVSWNSGALTSGVHTFPAVLQSSGLYSLSSVVTVPSSSLGTQTYICNVNHKPSNTKVDKKVEPKSCDKTHTCPPCPAPPVAGPSVFLFPPKPKDTLMISRTPEVTCVVVDVKHEDPEVKFNWYVDGVEVHNAKTKPREEQYNSTYRVVSVLTVLHQDWLNGKEYKCKVSNKALPAPIEKTISKAKGQPREPQVYTLPPSREQMTKNQVKLTCLVKGFYPSDIAVEWESNGQPENNYKTTPPVLDSDGSFFLYSKLTVDKSRWQQGNVFSCSVMHEALHNHYTQKSLSLSPGK
light: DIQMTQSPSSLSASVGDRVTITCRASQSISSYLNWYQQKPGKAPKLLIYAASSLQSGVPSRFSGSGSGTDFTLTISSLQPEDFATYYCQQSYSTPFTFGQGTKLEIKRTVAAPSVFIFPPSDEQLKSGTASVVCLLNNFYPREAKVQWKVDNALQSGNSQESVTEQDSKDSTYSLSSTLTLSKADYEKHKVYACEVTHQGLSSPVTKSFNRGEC
notes: copies: 1 + 1 + 2
On to B1, for which the binding result in assay [1] is on record as “binds”.

B2: XENP34389 (bispecific antibody)
heavy 1: EVQLLESGGGLVQPGGSLRLSCAASGFTFSNYYMAWVRQAPGKGLEWVSSISTGGGSTYYRDSVKGRFTISRDNSKSTLYLQMNSLRAEDTAVYYCTTDLSAIAATPFAYWGQGTLVTVSSASTKGPSVFPLAPSSKSTSGGTAALGCLVKDYFPEPVTVSWNSGALTSGVHTFPAVLQSSGLYSLSSVVTVPSSSLGTQTYICNVNHKPSDTKVDKKVEPKSCDKTHTCPPCPAPPVAGPSVFLFPPKPKDTLMISRTPEVTCVVVDVKHEDPEVKFNWYVDGVEVHNAKTKPREEEYNSTYRVVSVLTVLHQDWLNGKEYKCKVSNKALPAPIEKTISKAKGQPREPQVYTLPPSREEMTKNQVSLTCDVSGFYPSDIAVEWESDGQPENNYKTTPPVLDSDGSFFLYSKLTVDKSRWEQGDVFSCSVMHEALHNHYTQKSLSLSPGK
heavy 2: not shown
light: DIQMTQSPSSLSASVGDRVTITCRASQNIYTSLAWYQQKPGKAPKLLIYNAHSLQTGIPSRFSGSGSGADFTLTISSLQPEDFATYFCQQYYSGLTFGSGTKLEIKRTVAAPSVFIFPPSDEQLKSGTASVVCLLNNFYPREAKVQWKVDNALQSGNSQESVTEQDSKDSTYSLSSTLTLSKADYEKHKVYACEVTHQGLSSPVTKSFNRGEC
notes: 2+1 Fab2-scFv-Fc; also called B7H3 x CD28 in 2+1 Fab2-scFv-Fc format; copies: 1 + 1 + 2
For the molecule B2, the binding result with CD28-Fc-His protein is listed as “binds”.
